# Patent US20180030116A1 (Amgen, published 2018)
# Read-outs that look alike come from different tables or passages of the source.
# T1: MMP2 (human, UniProt P08253 30-660)
# T1 sequence (looked up): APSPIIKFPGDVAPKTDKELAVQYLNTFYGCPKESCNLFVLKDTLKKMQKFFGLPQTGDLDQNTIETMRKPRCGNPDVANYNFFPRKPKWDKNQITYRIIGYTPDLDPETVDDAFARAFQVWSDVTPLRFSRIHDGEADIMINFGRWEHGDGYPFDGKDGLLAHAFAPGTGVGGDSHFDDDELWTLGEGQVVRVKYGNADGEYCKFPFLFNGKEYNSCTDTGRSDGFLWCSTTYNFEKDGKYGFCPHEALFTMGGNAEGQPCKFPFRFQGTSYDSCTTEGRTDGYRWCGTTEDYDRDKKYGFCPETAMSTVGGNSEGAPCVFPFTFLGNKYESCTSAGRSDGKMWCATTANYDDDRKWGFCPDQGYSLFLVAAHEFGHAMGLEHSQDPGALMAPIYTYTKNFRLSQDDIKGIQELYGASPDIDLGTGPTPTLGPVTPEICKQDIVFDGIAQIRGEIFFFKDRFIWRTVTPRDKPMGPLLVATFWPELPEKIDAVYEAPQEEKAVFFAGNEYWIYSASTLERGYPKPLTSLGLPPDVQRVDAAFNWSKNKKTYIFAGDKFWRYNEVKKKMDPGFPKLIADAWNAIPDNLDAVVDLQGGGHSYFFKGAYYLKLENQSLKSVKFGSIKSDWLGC
# B1: N-TIMP3 fused to Fc (Fc fusion, part only; not given: Fc carrier, unspecified, part only)
# chain, part: CTCSPSHPQDAFCNSDIVIRAKVVGKKLVKEGPFGTLVYTIKQMKMYRGFTKMPHVQYIHTEASESLCGLKLEVNKYQYLLTGRVYDGKMYTGLCNFVERWDQLTLSQRKGLNYRYHLGCN
# B2: N-TIMP3 (N-terminal TIMP-3 domain, AA 1-144) (other)
# chain: CTCSPSHPQDAFCNSDIVIRAKVVGKKLVKEGPFGTLVYTIKQMKMYRGFTKMPHVQYIHTEASESLCGLKLEVNKYQYLLTGRVYDGKMYTGLCNFVERWDQLTLSQRKGLNYRYHLGCN
# B3: TIMP-3 [K45N, V47T, P56N, G58T, K94N, E96T, R138T] (SEQ ID NO:4) (protein)
# chain: CTCSPSHPQDAFCNSDIVIRANVTGKKLVKEGNFTTLVYTIKQMKMYRGFTKMPHVQYIHTEASESLCGLNLTVNKYQYLLTGRVYDGKMYTGLCNFVERWDQLTLSQRKGLNYTYHLGCNCKIKSCYYLPCFVTSKNECLWTDMLSNFGYPGYQSKHYACIRQKGGYCSWYRGWAPPDKSIINATDP
# modifications: 4 engineered N-linked glycosylation sites (# EG, Table 2)
# B4: TIMP-3 [H78N, Q80T, K94N, E96T, D110N, K112T, R138T] (SEQ ID NO:26) (other)
# chain: CTCSPSHPQDAFCNSDIVIRAKVVGKKLVKEGPFGTLVYTIKQMKMYRGFTKMPNVTYIHTEASESLCGLNLTVNKYQYLLTGRVYNGTMYTGLCNFVERWDQLTLSQRKGLNYTYHLGCNCKIKSCYYLPCFVTSKNECLWTDMLSNFGYPGYQSKHYACIRQKGGYCSWYRGWAPPDKSIINATDP
# modifications: 4 engineered N-linked glycosylation sites (# EG, Table 2)
# B5: TIMP-3 [K50N, V52T, K94N, E96T, D110N, K112T, R138T] (SEQ ID NO:16) (protein)
# chain: CTCSPSHPQDAFCNSDIVIRAKVVGKNLTKEGPFGTLVYTIKQMKMYRGFTKMPHVQYIHTEASESLCGLNLTVNKYQYLLTGRVYNGTMYTGLCNFVERWDQLTLSQRKGLNYTYHLGCNCKIKSCYYLPCFVTSKNECLWTDMLSNFGYPGYQSKHYACIRQKGGYCSWYRGWAPPDKSIINATDP
# modifications: 4 engineered N-linked glycosylation sites (# EG, Table 2)
# B6: TIMP-3 [K45N, V47T, F57N, K94N, E96T, D110N, K112T] (SEQ ID NO:6) (protein)
# chain: CTCSPSHPQDAFCNSDIVIRANVTGKKLVKEGPNGTLVYTIKQMKMYRGFTKMPHVQYIHTEASESLCGLNLTVNKYQYLLTGRVYNGTMYTGLCNFVERWDQLTLSQRKGLNYRYHLGCNCKIKSCYYLPCFVTSKNECLWTDMLSNFGYPGYQSKHYACIRQKGGYCSWYRGWAPPDKSIINATDP
# modifications: 4 engineered N-linked glycosylation sites (# EG, Table 2)
# B7: TIMP-3 [P56N, G58T K94N, E96T, Q126N, R138T] (SEQ ID NO:21) (protein)
# chain: CTCSPSHPQDAFCNSDIVIRAKVVGKKLVKEGNFTTLVYTIKQMKMYRGFTKMPHVQYIHTEASESLCGLNLTVNKYQYLLTGRVYDGKMYTGLCNFVERWDNLTLSQRKGLNYTYHLGCNCKIKSCYYLPCFVTSKNECLWTDMLSNFGYPGYQSKHYACIRQKGGYCSWYRGWAPPDKSIINATDP
# modifications: 4 engineered N-linked glycosylation sites (# EG, Table 2)
# B8: TIMP-3 [P56N, G58T, H78N, Q80T, K94N, E96T, R138T] (SEQ ID NO:20) (protein)
# chain: CTCSPSHPQDAFCNSDIVIRAKVVGKKLVKEGNFTTLVYTIKQMKMYRGFTKMPNVTYIHTEASESLCGLNLTVNKYQYLLTGRVYDGKMYTGLCNFVERWDQLTLSQRKGLNYTYHLGCNCKIKSCYYLPCFVTSKNECLWTDMLSNFGYPGYQSKHYACIRQKGGYCSWYRGWAPPDKSIINATDP
# modifications: 4 engineered N-linked glycosylation sites (# EG, Table 2)
# B9: TIMP-3 [K45N, V47T, F57N, K94N, E96T, R138T] (SEQ ID NO:7) (protein)
# chain: CTCSPSHPQDAFCNSDIVIRANVTGKKLVKEGPNGTLVYTIKQMKMYRGFTKMPHVQYIHTEASESLCGLNLTVNKYQYLLTGRVYDGKMYTGLCNFVERWDQLTLSQRKGLNYTYHLGCNCKIKSCYYLPCFVTSKNECLWTDMLSNFGYPGYQSKHYACIRQKGGYCSWYRGWAPPDKSIINATDP
# modifications: 4 engineered N-linked glycosylation sites (# EG, Table 2)
# B10: TIMP-3 [K45S, F57N, K94N, E96T, D110N, K112T, R138T] (SEQ ID NO:12) (protein)
# chain: CTCSPSHPQDAFCNSDIVIRASVVGKKLVKEGPNGTLVYTIKQMKMYRGFTKMPHVQYIHTEASESLCGLNLTVNKYQYLLTGRVYNGTMYTGLCNFVERWDQLTLSQRKGLNYTYHLGCNCKIKSCYYLPCFVTSKNECLWTDMLSNFGYPGYQSKHYACIRQKGGYCSWYRGWAPPDKSIINATDP
# modifications: 4 engineered N-linked glycosylation sites (# EG, Table 2)
# B11: TIMP-3 [K45N, V47T, K94N, E96T, D110N, K112T, G173T] (SEQ ID NO:10) (protein)
# chain: CTCSPSHPQDAFCNSDIVIRANVTGKKLVKEGPFGTLVYTIKQMKMYRGFTKMPHVQYIHTEASESLCGLNLTVNKYQYLLTGRVYNGTMYTGLCNFVERWDQLTLSQRKGLNYRYHLGCNCKIKSCYYLPCFVTSKNECLWTDMLSNFTYPGYQSKHYACIRQKGGYCSWYRGWAPPDKSIINATDP
# modifications: 4 engineered N-linked glycosylation sites (# EG, Table 2)
# B12: TIMP-3 [K50N, V52T P56N, G58T, K94N, E96T, D110N, K112T, R138T] (SEQ ID NO:14) (protein)
# chain: CTCSPSHPQDAFCNSDIVIRAKVVGKNLTKEGNFTTLVYTIKQMKMYRGFTKMPHVQYIHTEASESLCGLNLTVNKYQYLLTGRVYNGTMYTGLCNFVERWDQLTLSQRKGLNYTYHLGCNCKIKSCYYLPCFVTSKNECLWTDMLSNFGYPGYQSKHYACIRQKGGYCSWYRGWAPPDKSIINATDP
# modifications: 5 engineered N-linked glycosylation sites (# EG, Table 2)
# B13: TIMP-3 [P56N, G58T, K94N, E96T, D110N, K112T, R138T] (SEQ ID NO:22) (protein)
# chain: CTCSPSHPQDAFCNSDIVIRAKVVGKKLVKEGNFTTLVYTIKQMKMYRGFTKMPHVQYIHTEASESLCGLNLTVNKYQYLLTGRVYNGTMYTGLCNFVERWDQLTLSQRKGLNYTYHLGCNCKIKSCYYLPCFVTSKNECLWTDMLSNFGYPGYQSKHYACIRQKGGYCSWYRGWAPPDKSIINATDP
# modifications: 4 engineered N-linked glycosylation sites (# EG, Table 2)
# B14: TIMP-3 [H78N, Q80T, K94N, E96T, D110N, K112T, R138T] (SEQ ID NO:26) fused to Fc (Fc fusion, not shown: a dimerising Fc or GST)
# chain: CTCSPSHPQDAFCNSDIVIRAKVVGKKLVKEGPFGTLVYTIKQMKMYRGFTKMPNVTYIHTEASESLCGLNLTVNKYQYLLTGRVYNGTMYTGLCNFVERWDQLTLSQRKGLNYTYHLGCNCKIKSCYYLPCFVTSKNECLWTDMLSNFGYPGYQSKHYACIRQKGGYCSWYRGWAPPDKSIINATDP
# B15: TIMP-3 [K50N, V52T, K94N, E96T, D110N, K112T, R138T, G173T] (SEQ ID NO:17) (protein)
# chain: CTCSPSHPQDAFCNSDIVIRAKVVGKNLTKEGPFGTLVYTIKQMKMYRGFTKMPHVQYIHTEASESLCGLNLTVNKYQYLLTGRVYNGTMYTGLCNFVERWDQLTLSQRKGLNYTYHLGCNCKIKSCYYLPCFVTSKNECLWTDMLSNFTYPGYQSKHYACIRQKGGYCSWYRGWAPPDKSIINATDP
# modifications: 5 engineered N-linked glycosylation sites (# EG, Table 2)
# Columns and labels:
# Assay in all cases: cell-based or functional assay
# MMP9 (human) = MMP9 (human) (UniProt P14780)
# MMP2 (human) = MMP2 (human) (UniProt P08253)
# MMP2 [1] = target: T1, MMP2
# MMP9 [2] = target: T2, MMP9 (human, UniProt P14780 107-457, limits assumed)
# MMP2 [3] = target: T1, MMP2; remark: listed apart in the source
# MMP9 [4] = target: T2, MMP9; remark: listed apart in the source
# MMP2 [5] = target: T1, MMP2; remark: listed apart in the source
# MMP9 [6] = target: T2, MMP9; remark: listed apart in the source
# MMP2 [7] = target: T1, MMP2; remark: listed apart in the source
# MMP9 [8] = target: T2, MMP9; remark: listed apart in the source
# [9] = target: TNF alpha converting enzyme (TACE) (UniProt P78536 215-671, limits assumed)
# [10] = target: TNF alpha converting enzyme (TACE) (UniProt P78536)
# TNF alpha converting enzyme (TACE) (UniProt P78536), sequence (P78536 215-671 limits assumed): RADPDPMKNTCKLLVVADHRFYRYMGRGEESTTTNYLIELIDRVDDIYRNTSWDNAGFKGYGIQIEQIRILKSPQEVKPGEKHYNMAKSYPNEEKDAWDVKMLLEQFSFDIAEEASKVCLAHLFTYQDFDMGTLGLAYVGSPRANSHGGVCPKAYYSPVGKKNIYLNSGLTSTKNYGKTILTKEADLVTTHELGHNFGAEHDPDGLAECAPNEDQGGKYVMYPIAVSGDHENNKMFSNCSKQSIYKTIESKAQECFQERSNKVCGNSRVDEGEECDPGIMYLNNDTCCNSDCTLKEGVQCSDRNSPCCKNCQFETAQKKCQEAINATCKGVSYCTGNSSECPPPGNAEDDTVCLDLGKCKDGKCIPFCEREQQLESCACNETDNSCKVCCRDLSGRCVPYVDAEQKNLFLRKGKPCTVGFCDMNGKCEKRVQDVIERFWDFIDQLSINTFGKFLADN
# T2 sequence (P14780 107-457 limits assumed): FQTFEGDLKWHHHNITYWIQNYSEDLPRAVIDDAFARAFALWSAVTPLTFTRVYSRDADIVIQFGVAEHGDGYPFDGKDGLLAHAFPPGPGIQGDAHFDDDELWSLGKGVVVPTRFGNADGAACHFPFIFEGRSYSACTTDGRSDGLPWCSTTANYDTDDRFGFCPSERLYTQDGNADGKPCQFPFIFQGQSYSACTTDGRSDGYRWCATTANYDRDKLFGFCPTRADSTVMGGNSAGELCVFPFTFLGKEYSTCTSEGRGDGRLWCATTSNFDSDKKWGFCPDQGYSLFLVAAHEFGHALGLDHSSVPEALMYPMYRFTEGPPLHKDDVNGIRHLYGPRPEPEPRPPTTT
# MMP9 (human), sequence (P14780 107-457 limits assumed): as above
# TNF alpha converting enzyme (TACE) (UniProt P78536 215-671, limits assumed), sequence (P78536 215-671 limits assumed): as the sequence (P78536 215-671 limits assumed) above
Molecule,shift in MMP2 inhibitory activity (fold decrease) as compared to wild-type (fold decrease vs wild-type) (MMP2 [3]),shift in MMP9 inhibitory activity (fold decrease) as compared to wild-type (fold decrease vs wild-type) (MMP9 [4]),further results
N-TIMP3 fused to HSA (from UniProt P02768 25-609),–,–,"MMP9 EC50 (inhibition of MMP activity, FRET peptide substrate) (MMP9 (human)): 36.5 nM; MMP2 EC50 (inhibition of MMP activity, FRET peptide substrate) (MMP2 (human)): 38.7 nM"
"TIMP-3 [H78N, Q80T, K94N, E96T, D110N, K112T, R138T] (SEQ ID NO:26) fused to IgG (from UniProt P35625 24-211)",–,–,"MMP2 EC50 (inhibition of MMP activity, FRET peptide substrate) (MMP2 [1]): 14 nM; MMP9 EC50 (inhibition of MMP activity, FRET peptide substrate) (MMP9 [2]): 26 nM"
"TIMP-3 [H78N, Q80T, K94N, E96T, D110N, K112T, R138T] (SEQ ID NO:26) fused to HSA (from UniProt P02768 25-609)",–,–,"MMP9 EC50 (inhibition of MMP activity, FRET peptide substrate) (MMP9 (human)): 5.1 nM; MMP2 EC50 (inhibition of MMP activity, FRET peptide substrate) (MMP2 (human)): 1.4 nM"
B1,–,–,"MMP2 EC50 (inhibition of MMP activity, FRET peptide substrate) (MMP2 [3]): 6.9 nM; MMP9 EC50 (inhibition of MMP activity, FRET peptide substrate) (MMP9 [4]): 1.6 nM"
B2,–,–,"MMP2 EC50 (inhibition of MMP activity, FRET peptide substrate) (MMP2 [5]): 7.6 nM; MMP9 EC50 (inhibition of MMP activity, FRET peptide substrate) (MMP9 [6]): 1.7 nM"
B3,1,9,–
B4,–,–,"shift in MMP2 inhibitory activity (fold decrease) as compared to wild-type (MMP2 [7]): 2 fold decrease vs wild-type; shift in MMP9 inhibitory activity (fold decrease) as compared to wild-type (MMP9 [8]): 6 fold decrease vs wild-type; shift in TACE inhibitory activity (fold decrease) as compared to wild-type [9]: 0.4 fold decrease vs wild-type; MMP2 EC50 (inhibition of MMP activity, FRET peptide substrate) (MMP2 [5]): 1 nM; MMP9 EC50 (inhibition of MMP activity, FRET peptide substrate) (MMP9 [6]): 2.5 nM"
B5,3,10,shift in TACE inhibitory activity (fold decrease) as compared to wild-type (fold decrease vs wild-type) [10]: 0.6
B6,2,59,–
B7,2,22,–
B8,2,15,–
B9,2,38,–
B10,3,74,–
B11,2,9,shift in TACE inhibitory activity (fold decrease) as compared to wild-type (fold decrease vs wild-type) [10]: 2
B12,2,19,–
B13,2,20,–
B14,–,–,"MMP2 EC50 (inhibition of MMP activity, FRET peptide substrate) (MMP2 [3]): 13.3 nM; MMP9 EC50 (inhibition of MMP activity, FRET peptide substrate) (MMP9 [4]): 32.9 nM"
B15,5,21,shift in TACE inhibitory activity (fold decrease) as compared to wild-type (fold decrease vs wild-type) [10]: 2
